Patent US20240059789A1 (Janssen / Centocor, published 2024)

Key:
[1] = target: Human PSMA on prostate cancer cell lines (C4-2B, 22RV1) (human, UniProt Q04609 1-750); experiment: cell-based or functional assay
[2] = target: Human CD3 on T cells / Jurkat cells (human, UniProt P07766 23-207); experiment: cell-based or functional assay
Chain of Human CD3 on T cells / Jurkat cells (P07766 23-207 limits assumed): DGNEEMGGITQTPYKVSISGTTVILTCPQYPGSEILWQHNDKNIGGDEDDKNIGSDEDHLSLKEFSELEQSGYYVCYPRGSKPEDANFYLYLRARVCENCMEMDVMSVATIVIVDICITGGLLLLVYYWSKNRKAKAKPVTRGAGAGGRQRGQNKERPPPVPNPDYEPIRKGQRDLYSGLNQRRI

Chain of Human PSMA on prostate cancer cell lines (C4-2B, 22RV1) (Q04609 whole entry): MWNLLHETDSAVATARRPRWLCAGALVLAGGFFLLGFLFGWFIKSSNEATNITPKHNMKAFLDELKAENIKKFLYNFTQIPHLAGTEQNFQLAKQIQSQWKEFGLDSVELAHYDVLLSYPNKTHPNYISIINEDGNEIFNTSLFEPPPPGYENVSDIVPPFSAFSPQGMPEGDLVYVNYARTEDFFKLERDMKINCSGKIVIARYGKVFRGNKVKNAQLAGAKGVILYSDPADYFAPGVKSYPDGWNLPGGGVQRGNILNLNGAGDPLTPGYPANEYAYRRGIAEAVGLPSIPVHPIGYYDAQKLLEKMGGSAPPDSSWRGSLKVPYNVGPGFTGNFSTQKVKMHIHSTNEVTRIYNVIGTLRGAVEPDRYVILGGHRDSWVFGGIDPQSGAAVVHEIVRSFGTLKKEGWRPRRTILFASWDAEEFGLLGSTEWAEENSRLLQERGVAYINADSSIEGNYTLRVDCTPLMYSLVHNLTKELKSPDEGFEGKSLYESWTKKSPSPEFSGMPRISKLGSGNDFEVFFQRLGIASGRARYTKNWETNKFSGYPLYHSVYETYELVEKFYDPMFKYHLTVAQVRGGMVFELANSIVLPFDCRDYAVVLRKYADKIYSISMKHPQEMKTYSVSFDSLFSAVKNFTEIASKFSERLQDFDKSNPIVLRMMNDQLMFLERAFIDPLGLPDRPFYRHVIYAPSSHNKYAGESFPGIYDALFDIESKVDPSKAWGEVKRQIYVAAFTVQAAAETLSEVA

T cell activation EC50 [M] (CD25+ T cells, C4-2B co-culture, 72 h) [2]	Binder	Tumor killing EC50 [M] (C4-2B + PAN-T cells, 72 h, flow cytometry) [1]
1.2e-11 M	PS3B932 (bispecific antibody, human IgG1, kappa, lambda, L234A L235A) heavy 1: EVQLVESGGGLVKPGGSLRLSCAASGFTFSRYNMNWVRQAPGKGLEWVSSISTSSNYIYYADSVKGRFTFSRDNAKNSLDLQMSGLRAEDTAIYYCTRGWGPFDYWGQGTLVTVSSASTKGPSVFPLAPSSKSTSGGTAALGCLVKDYFPEPVTVSWNSGALTSGVHTFPAVLQSSGLYSLSSVVTVPSSSLGTQTYICNVNHKPSNTKVDKKVEPKSCDKTHTCPPCPAPEAAGGPSVFLFPPKPKDTLMISRTPEVTCVVVSVSHEDPEVKFNWYVDGVEVHNAKTKPREEQYNSTYRVVSVLTVLHQDWLNGKEYKCKVSNKALPAPIEKTISKAKGQPREPQVYTLPPSREEMTKNQVSLTCLVKGFYPSDIAVEWESNGQPENNYKTTPPVLDSDGSFLLYSKLTVDKSRWQQGNVFSCSVMHEALHNHYTQKSLSLSP light 1: DIQMTQSPSSLSASVGDRVTITCRARQSIGTAIHWYQQKPGKAPKLLIKYASESISGVPSRFSGSGSGTDFTLTISSLQPEDFATYYCQQSGSWPYTFGQGTKLEIKRTVAAPSVFIFPPSDEQLKSGTASVVCLLNNFYPREAKVQWKVDNALQSGNSQESVTEQDSKDSTYSLSSTLTLSKADYEKHKVYACEVTHQGLSSPVTKSFNRGEC heavy 2: EVQLVESGGGLVQPGGSLRLSCAASGFTFSSYAMSWVRQAPGKGLEWVSAISGGIGSTYYADSVKGRFTISRDNSKNTLWLQMNSLRAEDTAVYYCAKDGVGATPYYFDYWGQGTLVTVSSASTKGPSVFPLAPSSKSTSGGTAALGCLVKDYFPEPVTVSWNSGALTSGVHTFPAVLQSSGLYSLSSVVTVPSSSLGTQTYICNVNHKPSNTKVDKKVEPKSCDKTHTCPPCPAPEAAGGPSVFLFPPKPKDTLMISRTPEVTCVVVSVSHEDPEVKFNWYVDGVEVHNAKTKPREEQYNSTYRVVSVLTVLHQDWLNGKEYKCKVSNKALPAPIEKTISKAKGQPREPQVYTLPPSREEMTKNQVSLTCLVKGFYPSDIAVEWESNGQPENNYKTTPPVLDSDGSFFLYSRLTVDKSRWQQGNVFSCSVMHEALHNHYTQKSLSLSPG light 2: QSVLTQPPSVSAAPGQKVTISCSGSSSNIGNNYVSWYQQLPGTAPKLLIYDNNKRPSGIPDRFSGSKSGTSATLGITGLQTGDEADYYCGTWDSSLSAYVFGTGTKVTVLGQPKAAPSVTLFPPSSEELQANKATLVCLISDFYPGAVTVAWKADSSPVKAGVETTTPSKQSNNKYAASSYLSLTPEQWKSHRSYSCQVTHEGSTVEKTVAPTECS	6.42e-12 M
6.01e-11 M	PS3B933 (bispecific antibody, human IgG1, kappa, lambda, L234A L235A) heavy 1: EVQLVESGGGLVKPGGSLRLSCAASGFTFSRYNMNWVRQAPGKGLEWVSSISTSSNYIYYADSVKGRFTFSRDNAKNSLDLQMSGLRAEDTAIYYCTRGWGPFDYWGQGTLVTVSSASTKGPSVFPLAPSSKSTSGGTAALGCLVKDYFPEPVTVSWNSGALTSGVHTFPAVLQSSGLYSLSSVVTVPSSSLGTQTYICNVNHKPSNTKVDKKVEPKSCDKTHTCPPCPAPEAAGGPSVFLFPPKPKDTLMISRTPEVTCVVVSVSHEDPEVKFNWYVDGVEVHNAKTKPREEQYNSTYRVVSVLTVLHQDWLNGKEYKCKVSNKALPAPIEKTISKAKGQPREPQVYTLPPSREEMTKNQVSLTCLVKGFYPSDIAVEWESNGQPENNYKTTPPVLDSDGSFLLYSKLTVDKSRWQQGNVFSCSVMHEALHNHYTQKSLSLSP light 1: DIQMTQSPSSLSASVGDRVTITCRARQSIGTAIHWYQQKPGKAPKLLIKYASESISGVPSRFSGSGSGTDFTLTISSLQPEDFATYYCQQSGSWPYTFGQGTKLEIKRTVAAPSVFIFPPSDEQLKSGTASVVCLLNNFYPREAKVQWKVDNALQSGNSQESVTEQDSKDSTYSLSSTLTLSKADYEKHKVYACEVTHQGLSSPVTKSFNRGEC heavy 2: EVQLVESGGGLVQPGGSLRLSCAASGFTFSSYAMSWVRQAPGKGLEWVSAISGGSGSTYYADSVKGRFTISRDNSKNTLYLQMNSLRAEDSAVYYCAKDGVGATPYYFDYWGQGTLVTVSSASTKGPSVFPLAPSSKSTSGGTAALGCLVKDYFPEPVTVSWNSGALTSGVHTFPAVLQSSGLYSLSSVVTVPSSSLGTQTYICNVNHKPSNTKVDKKVEPKSCDKTHTCPPCPAPEAAGGPSVFLFPPKPKDTLMISRTPEVTCVVVSVSHEDPEVKFNWYVDGVEVHNAKTKPREEQYNSTYRVVSVLTVLHQDWLNGKEYKCKVSNKALPAPIEKTISKAKGQPREPQVYTLPPSREEMTKNQVSLTCLVKGFYPSDIAVEWESNGQPENNYKTTPPVLDSDGSFFLYSRLTVDKSRWQQGNVFSCSVMHEALHNHYTQKSLSLSPG light 2: QSVLTQPPSVSAAPGQKVTISCSGSSSNIGNNYVSWYQQLPGTAPKLLIYDNNKRPSGIPDRFSGSKSGTSATLGITGLQTGDEADYYCGTWDSSLSAYVFGTGTKVTVLGQPKAAPSVTLFPPSSEELQANKATLVCLISDFYPGAVTVAWKADSSPVKAGVETTTPSKQSNNKYAASSYLSLTPEQWKSHRSYSCQVTHEGSTVEKTVAPTECS	4.76e-11 M
4.59e-12 M	PS3B925 (bispecific antibody, human IgG1, kappa, lambda, L234A L235A) heavy 1: EVQLVESGGGLVKPGGSLRLSCAASGFTFSRYNMNWVRQAPGKGLEWVSSISTSSNYIYYADSVKGRFTFSRDNAKNSLDLQMSGLRAEDTAIYYCTRGWGPFDYWGQGTLVTVSSASTKGPSVFPLAPSSKSTSGGTAALGCLVKDYFPEPVTVSWNSGALTSGVHTFPAVLQSSGLYSLSSVVTVPSSSLGTQTYICNVNHKPSNTKVDKKVEPKSCDKTHTCPPCPAPEAAGGPSVFLFPPKPKDTLMISRTPEVTCVVVSVSHEDPEVKFNWYVDGVEVHNAKTKPREEQYNSTYRVVSVLTVLHQDWLNGKEYKCKVSNKALPAPIEKTISKAKGQPREPQVYTLPPSREEMTKNQVSLTCLVKGFYPSDIAVEWESNGQPENNYKTTPPVLDSDGSFLLYSKLTVDKSRWQQGNVFSCSVMHEALHNHYTQKSLSLSP light 1: DIQMTQSPSSLSASVGDRVTITCRARQSIGTAIHWYQQKPGKAPKLLIKYASESISGVPSRFSGSGSGTDFTLTISSLQPEDFATYYCQQSGSWPYTFGQGTKLEIKRTVAAPSVFIFPPSDEQLKSGTASVVCLLNNFYPREAKVQWKVDNALQSGNSQESVTEQDSKDSTYSLSSTLTLSKADYEKHKVYACEVTHQGLSSPVTKSFNRGEC heavy 2: EVQLVESGGGLVQPGGSLRLSCTASGFIFSSYAMSWVRQAPGKGLEWVSAISGGYGAPYYADTVKGRFTISRDNSKNTLYLQMNSLRAEDTAVYYCAKDGVGATPYYFDDWGQGILVTVSSASTKGPSVFPLAPSSKSTSGGTAALGCLVKDYFPEPVTVSWNSGALTSGVHTFPAVLQSSGLYSLSSVVTVPSSSLGTQTYICNVNHKPSNTKVDKKVEPKSCDKTHTCPPCPAPEAAGGPSVFLFPPKPKDTLMISRTPEVTCVVVSVSHEDPEVKFNWYVDGVEVHNAKTKPREEQYNSTYRVVSVLTVLHQDWLNGKEYKCKVSNKALPAPIEKTISKAKGQPREPQVYTLPPSREEMTKNQVSLTCLVKGFYPSDIAVEWESNGQPENNYKTTPPVLDSDGSFFLYSRLTVDKSRWQQGNVFSCSVMHEALHNHYTQKSLSLSPG light 2: QSVLTQPPSVSAAPGQKVTISCSGSSSNIGNNYVSWYQQLPGTAPKLLIFDNNKRPSGIPDRFSGSKSGTSATLGITGLQTGDEADYYCGTWDSSLSAYVFGTGTKVTVLGQPKAAPSVTLFPPSSEELQANKATLVCLISDFYPGAVTVAWKADSSPVKAGVETTTPSKQSNNKYAASSYLSLTPEQWKSHRSYSCQVTHEGSTVEKTVAPTECS	7.98e-12 M
4.81e-12 M	PS3B934 (bispecific antibody, human IgG1, kappa, lambda, L234A L235A) heavy 1: EVQLVESGGGLVKPGGSLRLSCAASGFTFSRYNMNWVRQAPGKGLEWVSSISTSSNYIYYADSVKGRFTFSRDNAKNSLDLQMSGLRAEDTAIYYCTRGWGPFDYWGQGTLVTVSSASTKGPSVFPLAPSSKSTSGGTAALGCLVKDYFPEPVTVSWNSGALTSGVHTFPAVLQSSGLYSLSSVVTVPSSSLGTQTYICNVNHKPSNTKVDKKVEPKSCDKTHTCPPCPAPEAAGGPSVFLFPPKPKDTLMISRTPEVTCVVVSVSHEDPEVKFNWYVDGVEVHNAKTKPREEQYNSTYRVVSVLTVLHQDWLNGKEYKCKVSNKALPAPIEKTISKAKGQPREPQVYTLPPSREEMTKNQVSLTCLVKGFYPSDIAVEWESNGQPENNYKTTPPVLDSDGSFLLYSKLTVDKSRWQQGNVFSCSVMHEALHNHYTQKSLSLSP light 1: DIQMTQSPSSLSASVGDRVTITCRARQSIGTAIHWYQQKPGKAPKLLIKYASESISGVPSRFSGSGSGTDFTLTISSLQPEDFATYYCQQSGSWPYTFGQGTKLEIKRTVAAPSVFIFPPSDEQLKSGTASVVCLLNNFYPREAKVQWKVDNALQSGNSQESVTEQDSKDSTYSLSSTLTLSKADYEKHKVYACEVTHQGLSSPVTKSFNRGEC heavy 2: EVQLVESGGGLVQPGGSLRLSCAASGFTFSSYAMSWVRQAPGKGLEWVSAISGGIGSTYYADSVKGRFTISRDNSKNTLWLQMNSLRAEDTAVYYCAKDGVGATPYYFDYWGQGTLVTVSSASTKGPSVFPLAPSSKSTSGGTAALGCLVKDYFPEPVTVSWNSGALTSGVHTFPAVLQSSGLYSLSSVVTVPSSSLGTQTYICNVNHKPSNTKVDKKVEPKSCDKTHTCPPCPAPEAAGGPSVFLFPPKPKDTLMISRTPEVTCVVVSVSHEDPEVKFNWYVDGVEVHNAKTKPREEQYNSTYRVVSVLTVLHQDWLNGKEYKCKVSNKALPAPIEKTISKAKGQPREPQVYTLPPSREEMTKNQVSLTCLVKGFYPSDIAVEWESNGQPENNYKTTPPVLDSDGSFFLYSRLTVDKSRWQQGNVFSCSVMHEALHNHYTQKSLSLSPG light 2: QSVLTQPPSVSAAPGQKVTISCSGSSSNIGINYVSWYQQLPGTAPKLLIYDNNKRPSGIPDRFSGSKSGTSATLGITGLQTGDEADYYCGTWDSSLSAVVFGGGTKLTVLGQPKAAPSVTLFPPSSEELQANKATLVCLISDFYPGAVTVAWKADSSPVKAGVETTTPSKQSNNKYAASSYLSLTPEQWKSHRSYSCQVTHEGSTVEKTVAPTECS	7.24e-12 M
